In article PMC6026317, “Molecular elements in FGF19 and FGF21 defining KLB/FGFR activity and specificity” (Molecular Metabolism, 2018):

Experiments:
[1] = target: Human β-Klotho (KLB) on 293/KLB cells (human) (UniProt Q86Z14)
[2] = target: Human β-Klotho (KLB) on 293/KLB cells (human) (UniProt Q86Z14); remark: listed apart in the source

Human β-Klotho (KLB) on 293/KLB cells (human), sequence (Q86Z14 whole entry): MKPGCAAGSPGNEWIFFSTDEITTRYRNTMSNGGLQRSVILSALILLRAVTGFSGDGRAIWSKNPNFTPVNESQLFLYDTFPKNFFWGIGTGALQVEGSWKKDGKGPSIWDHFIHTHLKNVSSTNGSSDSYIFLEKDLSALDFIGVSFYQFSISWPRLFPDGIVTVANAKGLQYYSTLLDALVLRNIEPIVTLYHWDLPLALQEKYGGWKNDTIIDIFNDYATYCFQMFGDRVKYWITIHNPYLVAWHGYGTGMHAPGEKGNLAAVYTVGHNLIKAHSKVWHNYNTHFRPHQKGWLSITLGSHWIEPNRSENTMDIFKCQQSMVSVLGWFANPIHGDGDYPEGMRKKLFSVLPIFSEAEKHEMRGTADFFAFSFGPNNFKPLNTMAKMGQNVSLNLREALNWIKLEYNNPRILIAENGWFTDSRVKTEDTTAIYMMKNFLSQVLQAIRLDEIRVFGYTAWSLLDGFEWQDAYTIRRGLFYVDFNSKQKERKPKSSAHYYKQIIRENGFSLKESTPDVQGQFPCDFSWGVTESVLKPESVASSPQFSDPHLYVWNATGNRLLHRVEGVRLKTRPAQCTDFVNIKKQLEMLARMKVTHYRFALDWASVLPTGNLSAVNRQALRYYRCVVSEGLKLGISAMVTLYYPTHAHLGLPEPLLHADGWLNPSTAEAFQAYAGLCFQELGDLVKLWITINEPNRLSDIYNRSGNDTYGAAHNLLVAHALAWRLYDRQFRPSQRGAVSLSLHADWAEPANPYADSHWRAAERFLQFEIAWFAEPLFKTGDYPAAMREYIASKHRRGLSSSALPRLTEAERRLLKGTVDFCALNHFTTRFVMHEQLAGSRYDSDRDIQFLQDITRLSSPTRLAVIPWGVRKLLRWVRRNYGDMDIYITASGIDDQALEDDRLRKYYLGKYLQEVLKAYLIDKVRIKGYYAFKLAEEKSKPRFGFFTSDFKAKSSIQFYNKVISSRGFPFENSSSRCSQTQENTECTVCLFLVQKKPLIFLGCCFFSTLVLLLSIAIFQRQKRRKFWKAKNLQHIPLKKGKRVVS
19C26,A^26, sequence (O95750 other isoform, or with tags, fused parts or gaps): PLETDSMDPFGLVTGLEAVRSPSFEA
FGF21-19A hybrid, sequence (Q9NSA1 other isoform, or with tags, fused parts or gaps): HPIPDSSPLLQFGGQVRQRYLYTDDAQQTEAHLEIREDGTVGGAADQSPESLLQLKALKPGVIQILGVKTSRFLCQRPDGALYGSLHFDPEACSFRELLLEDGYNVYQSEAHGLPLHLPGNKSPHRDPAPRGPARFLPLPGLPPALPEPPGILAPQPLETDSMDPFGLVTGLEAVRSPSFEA

Substance | potency of inhibition of FGF21 and FGF19 pERK signalling in 293/KLB cells, relative to 19C26, 21C25 and FGF21^18−181 [1] | pERK agonism in 293/KLB and Hep3B cells, potency relative to native FGF21 [2]
19C26,A^26 (from UniProt O95750 191-216) (peptide) | > 20 fold | –
FGF21-19A hybrid (from UniProt Q9NSA1 29-184; O95750 191-216) (ligand) | – | 10 fold
